Biological target: RHAU–casp9

Substance: RHAU–casp9 (enzyme)
- time to cleave half of casp3 (12 μM) by RHAU–casp9 (150 nM) without TERRA: 120 min

From paper PMC9059161
